Experimental data taken from the supplement of paper PMC12455559.
± gives the standard deviation of the averaged measurements.

What was measured:
[1] = PET hydrolysis, aromatic products released after 48 h (umol product/mg enzyme); higher = more PET depolymerization activity
Procedure, shortened: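 Sealed plates containing 3.5 mg PET (amorphous film or crystalline powder), 450 μL buffer and 5 μg (50 μL) tagless candidate enzyme were held 48 h at 40 or 60 °C with no shaking. Supernatants were then read at 260 and 280 nm against buffer blanks. The aromatic product detected this way, per mg enzyme, defines PET hydrolysis activity.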

[2] = melting temperature (DSF); higher = more thermostable
Procedure, shortened: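 Values are melting temperatures from differential scanning fluorimetry. Candidate enzymes were expressed in E. coli C41(DE3), purified on nickel beads and freed by SUMO protease cleavage. In sealed PCR plates on a Bio-Rad CFX96, 45 μL enzyme (0 to 0.3 mg/mL) was combined with 5 μL 5X Sypro Orange. Fluorescence was recorded from 25 °C for 250 cycles, rising 0.3 °C per cycle at a ramp of 0.3 °C/s.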

[3] = purified protein yield per well (BCA); higher = higher soluble expression
Procedure, shortened: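 Each candidate enzyme was grown in E. coli C41(DE3) in a 2 mL autoinduction culture (100 µg/mL kanamycin; 2 h at 37 °C, then 40 h at 18 °C) and purified robotically via Ni-charged magnetic beads with SUMO protease cleavage. Purified protein yield per well was assessed using the Pierce Rapid Gold BCA kit. Readings below 25 ug (0.1 mg/mL) are beneath the detection threshold.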

[4] = substrate: aFilm, 40 °C, pH 5.5
[5] = substrate: aFilm, 40 °C, pH 6.5
[6] = substrate: aFilm, 40 °C, pH 7.5
[7] = substrate: aFilm, 60 °C, pH 5.5
[8] = substrate: aFilm, 60 °C, pH 6.5
[9] = substrate: aFilm, 60 °C, pH 7.5
[10] = substrate: cryPow, 40 °C, pH 5.5
[11] = substrate: cryPow, 40 °C, pH 6.5
[12] = substrate: cryPow, 40 °C, pH 7.5
[13] = substrate: cryPow, 40 °C, pH 8.5
[14] = substrate: cryPow, 60 °C, pH 5.5
[15] = substrate: cryPow, 60 °C, pH 6.5
[16] = substrate: cryPow, 60 °C, pH 7.5
[17] = substrate: cryPow, 60 °C, pH 8.5
[18] = substrate: cryPow, 40 °C, pH 4.5
[19] = substrate: cryPow, 60 °C, pH 4.5
[20] = substrate: aFilm, 40 °C, pH 4.5
[21] = substrate: aFilm, 60 °C, pH 4.5

Row | Sequence | PET hydrolysis [1, 4] | PET hydrolysis [1, 5] | PET hydrolysis [1, 6] | PET hydrolysis ([1]; substrate: aFilm, 40 °C, pH 8.5) | PET hydrolysis [1, 7] | PET hydrolysis [1, 8] | PET hydrolysis [1, 9] | PET hydrolysis ([1]; substrate: aFilm, 60 °C, pH 8.5) | PET hydrolysis [1, 10] | PET hydrolysis [1, 11] | PET hydrolysis [1, 12] | PET hydrolysis [1, 13] | PET hydrolysis [1, 14] | PET hydrolysis [1, 15] | PET hydrolysis [1, 16] | PET hydrolysis [1, 17] | melting temperature [2] [C] | purified protein yield per well [3] [µg] | PET hydrolysis [1, 18] | PET hydrolysis [1, 19] | PET hydrolysis [1, 20] | PET hydrolysis [1, 21]
1 | ADNPYQRGPNPTQASIAANRGTFATAETSVGGGNGFGGAKIYYPTDTSQGTFGAIAVSPGYTATWAAEGAWMGHWLASFGFVVIGIDTINRNDREYARGTQLLAALDYLTQRSSVRTRVDPNRLAVMGHSMGGGGTISAALRRPTLKAAIGLAPYYPSQSTSGMQVPTMLLAGQNDGTSTPASIVTFYNDIPASTEKVYLELTGAGHGFPTSNNSVVTRKVIPWMKIFIDQDTRYTQFLCPLQDLTGIRTYRNSCPLLPNDPGTTFSLAGSASGKCADVPGRVQTNGTGLIIWTCNNAGNQQWTQTPAGELRIYGNTKCMDANASGQGARVTINTCNGGNSQKWTVNTNGTVTNAASGRCLDAGGTADNSPVVVNTCNAASGQTWTKRP [DP047] | < 3 | < 3 | < 3 | < 3 | < 3 | < 3 | < 3 | < 3 | < 3 | < 3 | < 3 | < 3 | < 3 | < 3 | < 3 | < 3 | 49.9 | 311 | – | – | – | –
2 | MASIVVPGSAAAADNPYQRGPNPTQASVAANRGTFATAETSVGGGNGFGGAKIYYPTDTSQGTFGAIAVVPGYTATWAAEGAWMGHWLSSFGFVVIGIDTNSRNDNDTARGTQLLAALDYLTQRSSVRARVDPNRLAVMGHSMGGGGAISAALRRPTLKAAIGNAPFSPSQNLSTMRVPTALLAGQRDGTVTPSLVSGYYNQIPASTEKMYLELTGAGHGFPTSNNSVATRKWVPWMKIFLDQDTRYQQFLCPLLDNTGISAYRSTCPLIPGDPAPGTTFSLAGSASGKCVDVPGGTQTNGAGLIIWPCRGVTNQRWAQTAAGELRIYDNAKCMDANASGQGARVTINSCHGGASQKWTVNTNGTVTNSASGRCLEAVGTADDAPVVVNTCNGGSGQTWAKRA [TEP164] | – | – | – | – | – | – | – | – | 7 | 25 | 31 | – | < 3 | < 3 | < 3 | – | 64 | 192 | < 3 | < 3 | – | –
3 | AADNPYQRGPDPTPASVSANRGTFATTQVAVAAGNGFGGGVIYYPTDTSQGQFGAIAVVPGYTATWAAEGAWMGHWLASFGFVVIGIDTNNRNDWDTARGTQLLAALDYLTQRSSVRDRVDATRTAVMGHSMGGGGAASASLQRPSLKASIGLAPASFSQNLTTTRVPTMLLSGQNDTTITPASVVNLYNGIPASVEKAYLELSGAGHGFPTSNNSTMMRNVIPWFKVFVDSDTRYTQFLCPLANWSGIRTYQSTCPLVPSTPPTSTTTSTTTSTTTSTTTTTTPQPVGACNATYRTTNSWPGGYQGEVTVTAGESGVNGWTTRWTLGSGQTVTQVWNGTLTVDGSTASVRNAAYNGSLPAGGSAAFGFIGGGTPPTSLTCTSP [ESM023] | – | – | – | – | – | – | – | – | < 3 | < 3 | 5 | – | < 3 | < 3 | < 3 | – | 55 | 221 | < 3 | < 3 | – | –
4 | ADNPYQRGPDPTAASIAAVTGPFATASVTVPRGNGFGGGVIYYPTDTSQGTFGGIAISPGLNGTWPGIAWLGPRLASQGFVVFGIETNNLNDSPTSRGTQLLAALDYLTGSSSVRTRVDAGRLAVAGHSMGGGGALDAALRRPSLRATIGNAPHLPSGSLANDRVPTLIYAMQNDTLVPPSRLTSLYNTVPATTERGYLEITGAGHNYIGQPSTILARTMIPWLKIFVDDDARYSQFLCPLTDRSGISQYQSSCPLITTSPTTGPTAQPTTAAPTTTPTTPPVGGPCEATHRTVNSWSGGYQGEVTVRAGSAAINGWTVSWTLGSGQTINQVWGGALTASGTAATVRNETWNGPVAAGASTTFGYIATGNAPTQPLACSAR [ESM060] | < 3 | 1.5 ± 2.1 | 8 ± 1.4 | – | < 3 | < 3 | < 3 | – | 11.5 ± 2.1 | 24.5 ± 2.1 | 38 ± 1.4 | – | < 3 | 5.5 ± 0.71 | 12.5 ± 0.71 | – | 58.6 | 279 | < 3 | < 3 | < 3 | < 3
5 | AQTSQVVTANPHQRGPDPTPETVRAPQGTFAFSTYSVPASVTGFGQGTIYYPDDTTQGTFAGVAISPGYTGPEASVAWLGPRLASRGFVVITITTNSRYDQPTSRGKQLLAALDYLTKQSPTEVRQRLDATRLGVMGHSMGGGGALYAAYKRPSLKAAVPLAPWNLIKNWSGIRVPTLVVAGTADKTASAGAHSLPFYSSMTGARERAFADVTGADHLTFVREDPVIGALAVSWLKRFLDDDTRYAPFITEPVGLSRFLCSCPYAG [DP007] | – | – | – | – | – | – | – | – | < 3 | 8 | 16 | 16 | – | – | – | – | 51.7 | 46 | – | – | – | –
6 | ATPDHAATADHASAHHHAAYPVSQQTIPATDGTGFGAATLYAPQGTGRKTLGAIVVAPGLKGDQSDLAWLAQDLAGEGFIVLNMDTLGKYDLPNQRSYEMLAAAKYLATASSVKDQVDPADIGVVGYSLGGGGALQAAVEQHGLKAAVALMPYDFPAGTTDPYKPTESPTYPGITTPTLVITGQADTTAPAASMGKPAYDSIPASTPKQYLELRGADHLAARATTNGTVRDAVTNFLKVYLDGNSAYRKYVCPAPPTSAAISESASSCPR [ESM174] | – | – | – | – | – | – | – | – | < 3 | < 3 | < 3 | – | < 3 | < 3 | < 3 | – | 44.5 | 86.9 | < 3 | < 3 | – | –
7 | LTPSPTPPPTGGTGGCPADAICRGETPGSYSANGPYGSRSYTLSRIQTPGGATVYYPANAEPPFSGLVFTPPYTGSQFMYRAWGPFFASHGIVMVTMDTRTTLDSVDQRAAQQKQVLDALKAENTRSASPLRGKLDTSRLGAVGWSMGGGATWINSAEYSGLKTAMSLAGHNLSALDINARGSNTRVPTLIMNGALDATYLGGLGQSLGVYNNIPRGIPKVIYEVSSAGHFSWGSPTSAGRSVAQIALAFQKTFLDGDTRWATYIRRPSSGVATWRTANLP [ESM175] | < 3 | < 3 | < 3 | – | < 3 | < 3 | < 3 | – | < 3 | < 3 | < 3 | – | < 3 | < 3 | < 3 | – | 46 | 285 | < 3 | < 3 | < 3 | < 3
8 | MAAGPAAVAADNPYQRGPDPTPASVAAPNGPFATAQVSVPPGYGFNGGMIYYPTDTSQGTFGAIAISPGYTALFSVELAWMGPRLASQGFVVIGIETNDRNDFDTARGTQLLAALDYLTGQSSVRSRVDPNRLAVAGHSMGGGGAFSAALRRPALKAAVGFTPFSPSQNLTNMQVPALLYSGQYDTVTTPSSVSNLYNGLPSTTEGAYIEAAGLDHSFPTRPNTLLMRTMIPWVKIFLDNDLRYTQFLCPLMDSSGVLQYRNTCPLVPPGLPSPSPTTAPPTTAPPTTAPPPTTAPPPTTAPPPTTAPPPTTNPPAGACSVSYTTNQWPGGFTRDVRITNTGGSVSSWTLAFTAGSNVSLSNGWNGDWSQSGSQITVRNAAWNGSLASGATVSIGFQGTFSGSTLPPLSNITLNGAACAS [DP068] | – | – | – | – | – | – | – | – | 3 | 21 | 36 | 52 | < 3 | 7 | 17 | 20 | 63.4 | 60 | – | – | – | –
9 | ADNPYQRGPDPTRTSVTAVNGPFANTSVSVPTGYGFNGGRIYYPTDTSQGTFGAIAISPGYTALFSAELAWMGPWLASHGFVVIGIETNSRNDFDTARGTQLLAALDYLTQQSPVRDRVDPNRLAVAGHSMGGGGALSAATRRSSLKAVVGIAPYSPSSNLANDRVPTMIFAGQADTVVTPSYATNLYNSLPTTTESVYLEVAGADHGFMVGRSNPVMVRTMLPFVKMFVDNDTRYSQFLCPLADSSGVVTYRSTCPLLPSTPTTPTATPTNTPTPTASPTVPPGSASQIVGTQSGRCIDVPNASHTNGTRVALYDCNRQSNQSWTYTSTKQLQVYGTMCLDAAGSGNGAAVQIYGCHSQTNQQWNVNSNGTISSVQSGRCLDVWSTANGAQVQLYDCHGQTNQQFRLVSLAR [ESM137] | – | – | – | – | – | – | – | – | 18 | 17 | 8 | – | < 3 | < 3 | < 3 | – | 62.2 | 140 | 10 | < 3 | – | –
10 | AASPYERGPDPTEQTITAERGPFQVATATVPANSASGFNRGTIYYPTDTSQGTFGAVAIIPGFIEPESTMSWYGPRLASQGFVVFTLEPFSVLNFPDDRANQLLAALDYLTGSSSVRSRVDASRLAVMGHSMGGGGTLRAAEMRPSLQAAIPLAPWHLHGDWRNVRVPTMIQAADNDFIAGVGNHAQPFYQNLTNAPEKAYLLFENYGHMSWISANTPIAKYSIAWLKRYVDDDTRYSKFLCPAPGAPSSTFQEYRHTCPD [DP044] | – | – | – | – | – | – | – | – | < 3 | < 3 | < 3 | < 3 | – | – | – | – | 69.4 | 28 | – | – | – | –
11 | QSAEASPPHGPDPTEESITAPRGPFEIDQKTVSRASVRGFGGGTIYYPTDTSEGTFSAVAIAPGYTAGQESLAWLGPRLASQGFVVFTIDTLTRYDQPDSRSRQLLAALDHLTDDSDVADRVDPARRGVMGHSMGGGGSLQAALDDPDLKAAIPMTPWHTTKDFSGVRTPTLIIGAQNDTVAPVSQHAKPFYESLPDDPGKAYLELAGASHFAPNVDNTTIARYSIAWLKRFLDDDTRYEQFLCPPPPDPAISDHQSTCPY [TEP105] | < 3 | 5 ± 1.4 | 7.5 ± 0.71 | – | < 3 | < 3 | 10 ± 4.2 | – | 15.5 ± 0.71 | 46.5 ± 0.71 | 59.5 ± 0.71 | – | 10.5 ± 0.71 | 101 ± 1.4 | 118 ± 13 | – | 61.6 | 207 | < 3 | < 3 | < 3 | < 3
12 | FSAPGPSAPCSNCTRGPAPTVASLKASSGPFSTAKFSVSGYLKGFGNSTVYYPTNTSGKMGAIAVIPGYLSYESSIEWWGPRLASHGFVVMTMNTNSIYDQPDSRATQLSKALDYLISQSGSSSSPIYGKVDSSRLGAIGWSMGGGGSLKLSTQRSINAIIPQAPWYLGSNTFNTIKTPALILACSADTVAPVYQHASPFYNRIPTSTPKAFLEIYGGSHFCANSGYPNEDLLGMYGIAWMKRFIDFDSRYSQFLCGPNHESDYAISEYRQNCPY [ESM017] | – | – | – | – | – | – | – | – | < 3 | 11 | 33 | – | – | – | – | – | 56.5 | 53.8 | < 3 | – | – | –
